According to PMC9945994 (Proceedings of the National Academy of Sciences of the …, 2023):
Where “and” joins values, the source holds several entries; their conditions need not be identical. Identical values can stand only once.

Experiments:
[1] = molecular target: PscA, 82-kDa core subunit of the green sulfur bacterial reaction center (GsbRC) (Chlorobaculum tepidum TLS); experiment: cryo-EM structure
[2] = molecular target: T1, Fenna–Matthews–Olson (FMO) protein (Chlorobaculum tepidum TLS, UniProt Q46393 1-366); experiment: cryo-EM structure
T1 sequence (looked up): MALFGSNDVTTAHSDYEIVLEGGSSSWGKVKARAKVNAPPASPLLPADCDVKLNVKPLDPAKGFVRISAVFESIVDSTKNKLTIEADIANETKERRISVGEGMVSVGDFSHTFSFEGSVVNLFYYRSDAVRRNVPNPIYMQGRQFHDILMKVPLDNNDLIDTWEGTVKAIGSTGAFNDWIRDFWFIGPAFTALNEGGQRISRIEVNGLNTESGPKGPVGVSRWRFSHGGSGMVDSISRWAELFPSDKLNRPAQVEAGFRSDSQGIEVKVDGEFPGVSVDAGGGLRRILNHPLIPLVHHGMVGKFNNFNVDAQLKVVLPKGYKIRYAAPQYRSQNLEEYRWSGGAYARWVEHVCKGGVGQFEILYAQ

[3] = molecular target: reaction center of the green sulfur bacterium Chlorobaculum tepidum (GsbRC) (Chlorobaculum tepidum TLS) (UniProt O07091)

Question: For “PscA, 82-kDa core subunit of the green sulfur bacterial reaction center (GsbRC) (natural protein)”, which stoichiometry N [1] is on record?
Answer: Its stoichiometry N is 2.

B1: PscD, 17-kDa protein of GsbRC (natural protein, Chlorobaculum tepidum TLS, UniProt Q8KEP5 1-143, looked up)
chain: MQPQLSRPQTASNQVRKAVSGPWSGNAVHKAEKYFITSAKRDRDGKLQIELVPASGRRKLSPTPEMIRRLIDGEIEIYILTTQPDIAIDMNKEIIDMENRYVIDFDKRGVKWTMREIPVFYHEGKGLCVELHNKIYTLDQFFK
Question: Does B1 bind [2]?
Answer: Result: binds

B2: Fenna–Matthews–Olson (FMO) protein (natural protein)
chain: MALFGSNDVTTAHSDYEIVLEGGSSSWGKVKARAKVNAPPASPLLPADCDVKLNVKPLDPAKGFVRISAVFESIVDSTKNKLTIEADIANETKERRISVGEGMVSVGDFSHTFSFEGSVVNLFYYRSDAVRRNVPNPIYMQGRQFHDILMKVPLDNNDLIDTWEGTVKAIGSTGAFNDWIRDFWFIGPAFTALNEGGQRISRIEVNGLNTESGPKGPVGVSRWRFSHGGSGMVDSISRWAELFPSDKLNRPAQVEAGFRSDSQGIEVKVDGEFPGVSVDAGGGLRRILNHPLIPLVHHGMVGKFNNFNVDAQLKVVLPKGYKIRYAAPQYRSQNLEEYRWSGGAYARWVEHVCKGGVGQFEILYAQ
Question: Which stoichiometry N [3] does the source give for B2 here?
Answer: Its stoichiometry N is 2 and 1.
